The values that follow come from patent publication US20140294819A1 (NVIP, published 2014).

The target in test [1] is canine CD20 cyclic (oxidised, disulphide-bonded) peptide SEQ ID NO:2 (canine). The test is described as follows: ELISA, biotinylated oxidised peptide on streptavidin plate. Particulars: scale: fold of the binding to human CD20 peptide. For orientation: ELISA stands for enzyme-linked immunosorbent assay.
In test [2] the target is T1, murine CD20 cyclic (oxidised) peptide SEQ ID NO:6 (murine, disulphide bond between the two cysteine residues; biotinylated).
T1 construct: also called M20; mouse CD20 peptide
T1 peptide: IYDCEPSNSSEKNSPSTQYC
The test is described as follows: ELISA, purified recombinant antibody on cyclic CD20 peptide. An excerpt: (§1) The RA2 and RF2 variable heavy and light chain sequences (SEQ ID NO:23-26) were rebuilt as IgG2a/kappa antibodies by oligonucleotide-based gene synthesis, cloned into pcDNA3.3 vectors and co-expressed in appropriate pairs in CHO cells. The supernatant expressed antibodies were purified by Protein A chromatography and tested for binding by CD20 peptide ELISA (FIG. 11). Both purified recombinant forms of mouse RA2 and RF2 bound strongly to cyclic canine and feline CD20 peptides, and also to mouse and human CD20 peptides (the binding of RA2 to human CD20 peptide was more pronounced than with the corresponding hybridoma supernatant in FIG. 9).

For test [3], the target named is T2, feline CD20 cyclised peptide SEQ ID NO:4 (feline, cyclised by a disulphide bond between the two cysteine residues).
T2 construct: also called feline CD20 peptide
T2 peptide: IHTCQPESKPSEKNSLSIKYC
The description is as above.
Description: as §1

The target of test [4] is T3, canine CD20 cyclic (oxidised, disulphide-bonded) peptide SEQ ID NO:2 (canine, disulphide bond between the two cysteine residues (corresponding to positions 167 and 183); N-terminal biotin in the streptavidin-plate assays).
T3 construct: Chemically synthesised and oxidised; also called C20; caCD20 peptide
T3 peptide: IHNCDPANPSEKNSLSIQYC
The description is as above.
Description: as §1

For test [5], the target named is T4, human CD20 cyclic (oxidised) peptide SEQ ID NO:3 (human, disulphide bond between the two cysteine residues; biotinylated).
T4 construct: also called H20; human CD20 cyclic peptide
T4 peptide: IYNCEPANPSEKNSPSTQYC
Described as above.
Description: as §1

Test [6] has as its target T1, murine CD20 cyclic (oxidised) peptide …. Put plainly: ELISA on cyclised CD20 peptide.
Test [7] addresses T2, feline CD20 cyclised peptide SEQ ID NO:4. The test is described as follows: ELISA on cyclised CD20 peptide.
Test [8] concerns the target T3, canine CD20 cyclic (oxidised, …). Put plainly: ELISA on cyclised CD20 peptide.
Test [9] has as its target T4, human CD20 cyclic (oxidised) peptide …. The test is described as follows: ELISA on cyclised CD20 peptide.
The target of test [10] is T3, canine CD20 cyclic (oxidised, …). Put plainly: ELISA, CHO supernatant on canine CD20 cyclic peptide, dose response. An excerpt:
This confirms the data with Bly-1 above (and by extension its humanised variant GA101) that this is a further example of a Type II anti-human CD20 monoclonal antibody that also binds to a common epitope on canine CD20, thus validating the use of the structurally constrained shared epitope on canine CD20 as a novel target for monoclonal antibodies.

In turn, “B1-H299 (Beckmann Coulter) murine Type II anti-human CD20 monoclonal antibody” showed a binding relative to the binding to human CD20 peptide in [1] of 0.167.

B1: recombinant mouse RF2 (IgG2a/kappa) (antibody)
heavy: QVQLKQSGPGLVPPSQSLSITCTISGFSLTSYGVHWVRQSPGWGLEWLGVIWSGGSIDYNAAFISRLSISKDNSKSQVFIKMNSLQADDTAIYYCARGPRKFYYFGMDYWGQGTSVTVSSAKTTAPSVYPLAPVCGDTTGSSVTLGCLVKGYFPEPVTLTWNSGSLSSGVHTFPAVLQSDLYTLSSSVTVTSSTWPSQSITCNVAHPASSTKVDKKIEPRGPTIKPCPPCKCPAPNLLGGPSVFIFPPKIKDVLMISLSPIVTCVVVDVSEDDPDVQISWFVNNVEVHTAQTQTHREDYNSTLRVVSALPIQHQDWMSGKEFKCKVNNKDLPAPIERTISKPKGSVRAPQVYVLPPPEEEMTKKQVTLTCMVTDFMPEDIYVEWTNNGKTELNYKNTEPVLDSDGSYFMYSKLRVEKKNWVERNSYSCSVVHEGLHNHHTTKSFSRTPGK
light: DVVMTQTPLSLPVSLGDQASISCRSSQNIVHSNGNTYVEWYLQKPGQSPKLLIYKVSNRFSGVPDRFSGSGSGTDFTLKISRVEAEDLGVYYCFQGSHVPLTFGAGTKLELKRADAAPTVSIFPPSSEQLTSGGASVVCFLNNFYPKDINVKWKIDGSERQNGVLNSWTDQDSKDSTYSMSSTLTLTKDEYERHNSYTCEATHKTSTSPIVKSFNRNEC
notes: also called muRF2; mouse IgG2a variant of RF2
As for B1, the binding result in [2], in test [3], in [4] and in test [5] was “binds” throughout.

B2: caninised RF2, HCC isotype (antibody)
heavy: EVQLVQSGGGLVKPTESLTISCVISGFSLTSYGVHWVRQSPGKGLEWLGVIWSGGSIDYNAAFISRLSISKDNSKSTVFIRMNSLRADDTAIYYCARGPRKFYYFGMDYWGQGTSVTVSSASTTAPSVFPLAPSCGSQSGSTVALACLVSGYIPEPVTVSWNSVSLTSGVHTFPSVLQSSGLYSLSSMVTVPSSRWPSETFTCNVAHPATNTKVDKPVAKECECKCNCNNCPCPGCGLLGGPSVFIFPPKPKDILVTARTPTVTCVVVDLDPENPEVQISWFVDSKQVQTANTQPREEQSNGTYRVVSVLPIGHQDWLSGKQFKCKVNNKALPSPIEEIISKTPGQAHQPNVYVLPPSRDEMSKNTVTLTCLVKDFFPPEIDVEWQSNGQQEPESKYRMTPPQLDEDGSYFLYSKLSVDKSRWQRGDTFICAVMHEALHNHYTQISLSHSPGK
light: DIVMTQTPLSLSVSQEEEASISCRSSQNIVHSNGNTYVEWYLQKPGQSPKLLIYKVSNRFSGVPDRFSGSGSGTDFTLKISRVEAEDAGVYYCFQGSHVPLTFGAGTKLELKRNDAQPAVYLFQPSPDQLHTGSASVVCLLNSFYPKDINVKWKVDGVIQDTGIQESVTEQDKDSTYSLSSTLTMSSTEYLSHELYSCEITHKSLPSTLIKSFQRSECQRVD
notes: also called caRF2-C
With B2, the binding result in [6], in test [7], in [8] and in test [9] was “binds” each time.

B3: recombinant caninised GA101 (full length canine antibody) (antibody, V domains shown)
VH: EVQLVQSGGEVVKPGGSLKVSCVASGYAFSYSWINWVRQAPGQGMEWVGRIFPGDGDTDYNGKFKGRVTITRDNSKSTAYLELSSLRSEDTAVYYCARNVFDGYWLVYWGQGTLVTVSS
VL: DIVMTQTPLSLSVTPEEPASISCRSSKSLLHSNGITYLYWYLQKPGQSPQLLIYQMSNLVSGVPDRFSGSGSGTDFTLKISRVEAEDVGVYYCAQNLELPYTFGAGTKVEIKR
notes: Tested as CHO cell supernatant
On to B3, for which, in test [10], the binding result was “binds”.
